According to publication PMC8041770:

How the values were obtained:
[1] = target: yeast-displayed human LIF (hLIF, Ser23 to Phe203) (human) (UniProt P15018); experiment: flow cytometry on cells; LIF displayed on yeast (EBY100), soluble Fc fusion titrated in PBS with 1 mg/ml BSA, Fc detected with fluorescent secondary antibody; apparent Kd by non-linear regression
[2] = target: yeast surface-displayed human LIF (Ser23 to Phe203) (human) (UniProt P15018); experiment: flow cytometry on cells; hLIF displayed on yeast, soluble Fc fusion titrated in PBS with 1 mg/ml BSA; bound Fc detected by fluorescent anti-Fc antibody; apparent Kd by non-linear regression
[3] = target: recombinant human LIF, histidine-tagged (hLIF-His) (human) (UniProt P15018)
[4] = target: recombinant human LIF, histidine-tagged (hLIF-His) (human) (UniProt P15018); experiment: Kinetic Exclusion Assay (KinExA); both partners soluble; hLIF-His constant (100 pM for eLIFR-Fc, 250 pM for hLIFR-Fc), LIFR-Fc serially diluted, 18 h, BPBS with 0.02% sodium azide; free LIF-His captured on LIFR-Fc-coated PMMA beads; apparent Kd, n-curve analysis

B1: C-terminal eLIFR-Fc fusion containing a (Glycine)4Serine linker (Fc fusion)
chain: GGGGSDLKCVTNNLQVWNCSWKAPSGTGRGTDYEVCIENRSRSCYQLEKTSIKIPALSHGDYEITINSLHDFGSSTSKFTLNEQNVSLIPDTPEILNLSADFSTSTLYLKWNDRGSVFPHRSNVIWEIKVLRKESMELVKLVTHNTTLNGKDTLHHWSWASDMPLECAIHFVEIRCYIDNLHFSGLEEWSDWSPVKNISWIPDSQTKVFPQDKVVPVGSDITFCCVSQEKVLSALIGRTNCPLIHLDGENVAIKVRNVSASASSGTNVVFITEDDIFGTVIFAGYPPDTPQQLNCETHDLKEIICSWNPGRVTALVGPRATSYTLVESFSGKYVRLKRAEAPTNESYQLLFQMLPNQEIYNFTLNAHNPLGRSQSTILVNITEKVYPHTPTSFKVKDINSTAVKLSWHLPGNFAKINFLCEIEIKKSNSVQEQRNVTIKGVENSSYLVALDKLNPYTLYTFRIRCSTETFWKWSKWSNKKQHLTTEAS
Question: Which Kd [1] does the source give for B1 here?
Answer: 0.02 nM

B2: full-length eLIFR-Fc (Fc fusion)
chain: QKKGAPHDLKCVTNNLQVWNCSWKAPSGTGRGTDYEVCIENRSRSCYQLEKTSIKIPALSHGDYEITINSLHDFGSSTSKFTLNEQNVSLIPDTPEILNLSADFSTSTLYLKWNDRGSVFPHRSNVIWEIKVLRKESMELVKLVTHNTTLNGKDTLHHWSWASDMPLECAIHFVEIRCYIDNLHFSGLEEWSDWSPVKNISWIPDSQTKVFPQDKVVPVGSDITFCCVSQEKVLSALIGRTNCPLIHLDGENVAIKVRNVSASASSGTNVVFITEDDIFGTVIFAGYPPDTPQQLNCETHDLKEIICSWNPGRVTALVGPRATSYTLVESFSGKYVRLKRAEAPTNESYQLLFQMLPNQEIYNFTLNAHNPLGRSQSTILVNITEKVYPHTPTSFKVKDINSTAVKLSWHLPGNFAKINFLCEIEIKKSNSVQEQRNVTIKGVENSSYLVALDKLNPYTLYTFRIRCSTETFWKWSKWSNKKQHLTTEASPSKGPDTWREWSSDGKNLIIYWKPLPINEANGKILSYNVSCSSDEETQSLSEIPDPQHKAEIRLDKNDYIISVVAKNSVGSSPPSKIASMEIPNDDLKIEQVVGMGKGILLTWHYDPNMTCDYVIKWCNSSRSEPCLMDWRKVPSNSTETVIESDEFRPGIRYNFFLYGCRNQGYQLLRSMIGYIEELAPIVAPNFTVEDTSADSILVKWEDIPVEELRGFLRGYLFYFGKGERDTSKMRVLESGRSDIKVKNITDISQKTLRIADLQGKTSYHLVLRAYTDGGVGPEKSMYVVTKENSVGLIIAILIPVAVAVIVGVVTSILCYRKREWIKETFYPDIPNPE
Question: How did the Kd [2] turn out when B2 was run?
Answer: 0.35 nM

B3: hLIFR-Fc (wild-type human LIFR CBM I–Ig-like–CBM II fused to hIgG1 Fc) (Fc fusion)
chain: QKKGAPHDLKCVTNNLQVWNCSWKAPSGTGRGTDYEVCIENRSRSCYQLEKTSIKIPALSHGDYEITINSLHDFGSSTSKFTLNEQNVSLIPDTPEILNLSADFSTSTLYLKWNDRGSVFPHRSNVIWEIKVLRKESMELVKLVTHNTTLNGKDTLHHWSWASDMPLECAIHFVEIRCYIDNLHFSGLEEWSDWSPVKNISWIPDSQTKVFPQDKVILVGSDITFCCVSQEKVLSALIGHTNCPLIHLDGENVAIKIRNISVSASSGTNVVFTTEDNIFGTVIFAGYPPDTPQQLNCETHDLKEIICSWNPGRVTALVGPRATSYTLVESFSGKYVRLKRAEAPTNESYQLLFQMLPNQEIYNFTLNAHNPLGRSQSTILVNITEKVYPHTPTSFKVKDINSTAVKLSWHLPGNFAKINFLCEIEIKKSNSVQEQRNVTIKGVENSSYLVALDKLNPYTLYTFRIRCSTETFWKWSKWSNKKQHLTTEAS
Question: B3 was tested. Which IC50 of inhibition of LIF (20 pM) signalling through LIFR/gp130 in HeLa STAT3 luciferase reporter cells [3] did it give?
Answer: 1.8 nM

Question: And the Kd [4]?
Answer: 1.1 nM
